Test results from patent US20250186602A1, “HUMANIZED ANTIBODY THAT BONDS TO EVA1 PROTEIN OR FUNCTIONAL FRAGMENT THEREOF, ANTIBODY-DRUG CONJUGATE AND CHIMERIC ANTIGEN RECEPTOR” (CURED INC., priority 2022, published 2025).
Entries after “also recorded” stand apart in the source; their conditions may differ.

B1: 232aa: mouse antibody-derived Eval-CAR-T with spacer length 232aa (SEQ ID NO: 63) (protein)
chain: EPKSSDKTHTSPPCPAPEFLGGPSVFLFPPKPKDTLMISRTPEVTCVVVDVSQEDPEVQFNWYVDGVEVHNAKTKPREEQFNSTYRVVSVLTVLHQDWLNGKEYKCKVSNKGLPSSIEKTISKAKGQPREPQVYTLPPSQEEMTKNQVSLTCLVKGFYPSDIAVEWESNGQPENNYKTTPPVLDSDGSFFLYSRLTVDKSRWQEGNVFSCSVMHEALHNHYTQKSLSLSLGK
modifications: Hinge region:232aa
B2: H2-L2: humanized B2E5-48 IgG1, VH H2 (SEQ ID NO: 13), VL L2 (SEQ ID NO: 7) (antibody, V domains shown)
VH: QVQLVQSGAEVKKPGASVKVSCKASGYTFTNYWMHWVRQAPGQGLEWMGEINPTNGGTDYNEKFQGRVTMTVDKSTSTAYMELSSLRSEDTAVYYCTIYTTALDYWGQGTLVTVSS
VL: EIVLTQSPATLSLSPGERATLSCRASSSVGYMYWYQQKPGQAPRPLIYVTSNRATGIPARFSGSGSGTDYTLTISSLEPEDFAVYYCQQWSSNPPTFGQGTKLEIK
modifications: Variable Region of Heavy Chain 2 (Humanized B2E5-48); Variable Region of Light Chain 2 (Humanized B2E5-48)

Columns and labels:
[1] = tested on: various tumor cell lines (Eval positive and Eval negative); assay: Cytokine production of Eval-CAR-T co-cultured with tumor cell lines (intracellular staining, flow cytometry); assay type: cell-based, human; conditions: co-culture 1:1, 6 hours, Day 17 cells
Experimental: Next, the cytokine production capacity of the Eval-CAR-T using the anti-human Eval mouse antibody sequence was analyzed. Specifically, CAR-T prepared as described above was cultured until day 17, and the cells were co-cultured with various main cell lines in 1:1. After co-culturing for 6 hours, immobilization and intracellular staining (BD cytofix/cytoperm buffer) were conducted to stain the cells with IFN-gamma (IFN-γ).
The experiment was conducted by using the above-described Eval-CAR-Ts at Day 17. Specifically, the Eval-CAR-Ts were co-cultured with tumor cell lines in 1:1, and the cells were immobilized and stained in the same methods as described above after 6 hours, and intracellular IFN-gamma and IL-2 were evaluated with flow cytometry.
(§1) The experiment was conducted by using hEva1-CAR-Ts at Day 17. Specifically, hEva1-CAR-Ts were co-cultured with tumor cell lines in 1:1, and the cells were immobilized and stained in the same manner as described above after 6 hours, and intracellular IFN-gamma and IL-2 were evaluated with flow cytometry. These figures show the percentages at which the cytokine was positive among the CD8 positive cells.
as §1, with “using the above-described” for “using”, “Specifically, the” for “Specifically,”, “after […]” for “after 6”, “which each” for “which the”

[2] = tested on: Eval-positive HuCCT-1; assay: Amplification of Eval-CAR-T after antigen stimulation (co-culture with irradiated Eval-positive HuCCT-1); assay type: cell-based, human
Experimental: Eval-positive HuCCT-1, was irradiated with a radioactive ray of 100 Gy, and was co-cultured with the CAR-Ts in 1:1, and the amplification efficiencies of these were analyzed. In FIG. 3J, amplification efficiencies in time series are shown. In FIG. 3K, the amplification factors at Day 4 were plotted.
In the same manner as described above, Eval-positive HuCCT-1, was irradiated with a radioactive ray of 100 Gy, and was co-cultured with the CAR-T-cells in 1:1. Then, 50 U/ml of IL-2 was added once every three days, at Day 1, 4, and 7, followed by culturing. In FIG. 3L, the respective amplification efficiencies in time series are shown. In FIG. 3M, the amplification factors at Day 18 were plotted.
In the same manner as described above, Eval-positive HuCCT-1, was irradiated with a radioactive ray of 100 Gy, and was co-cultured with hEva1 CAR-T-cells in 1:1.
In the same manner as described above, Eval-positive HuCCT-1, was irradiated with a radioactive ray of 100 Gy, and was co-cultured with hEva1-CAR-Ts in 1:1.

[3] = tested on: Human glioma stem cells (hGIC); assay: Cytotoxicity assay of B2E5-ADC against glioma (MTT); assay type: cell-based
Experimental: Human glioma stem cells (hGIC) were inoculated in a 96-well plate in an amount of 1000 cells per well. […] Then, 5 μl of MTT (5 mg/ml, Wako Pure Chemical) was added to each well, followed by culturing for 2 hours in a CO2 incubator at 37° C. After the culture liquid was discarded, 90 μl of DMSO was added, and after the cells were dissolved, the absorbance (570 nm) was measured by using a benchmark (Bio-Rad).
Note that as a positive control (100%), a measured value in a well in the absence of the antibody was used. In addition, as a negative control (0%), a measured value obtained by adding 5 μl of 1% TritonX100 to a well in the absence of the antibody was used.

[4] = tested on: hEva1-mouse Fc; assay: Surface plasmon resonance kinetics analysis (BiaCore T200, single-cycle); assay type: binding, human; conditions: SPR, antibody captured 5 nM, analyte hEva1-mouse Fc 1-250 nM, HBS-EP+ pH 7.4
Experimental: The dissociation constants and association constants of the humanized antibodies and the like were analyzed by using surface plasmon resonance (SPR, product name: BiaCore T200 (manufactured by GE healthcare)).
Specifically, first, human IgG capture antibodies were immobilized on a CM5 chip by an amine coupling method. This immobilization was conducted in both reference cells and active cells. Then, the kinetics analysis on the anti-Eval antibody and hEva1 was conducted by a single-cycle method using the following measurement conditions.
• Sample compartment temperature: 10° C. • Running buffer: HBS-EP+buffer, pH 7.4 • Capturing molecule: Human IgG antibody, reference & active cells • Ligand: Various antibodies 5 nM, active cells only • Analyte: hEva1-mouse Fc1, 5, 25, 125, 250 nM, reference & active cells • Regeneration buffer: 3M MgCl2, reference & active cells • 3 cycles of Blanks (Analyte zero concentration)

Sequence of hEva1-mouse Fc (O60487 27-154 limits assumed): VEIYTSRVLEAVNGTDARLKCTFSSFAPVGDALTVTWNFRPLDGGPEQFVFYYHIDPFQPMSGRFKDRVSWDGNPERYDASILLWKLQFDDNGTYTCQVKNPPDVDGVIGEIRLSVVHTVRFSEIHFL

Molecule | cytokine production (intracellular IFN-gamma and IL-2) [1] | amplification efficiency after Eval stimulation ([2]; 50 U/ml IL-2 at Day 1, 4, 7, co-culture 1:1 with HuCCT-1 irradiated 100 Gy) | amplification efficiency after Eval stimulation ([2]; absence of IL-2, co-culture 1:1 with HuCCT-1 irradiated 100 Gy) | cytotoxic activity against hGIC [3] | ka [4] | kd [4]
B1 | most excellent cytokine production capacity | cell amplifications tended to be better | higher cell amplifications; also recorded: most excellent in cell growth and cytokine production | – | – | –
B2 | – | – | – | no cytotoxic activity | 19720 M⁻¹ s⁻¹ | 0.009201 s⁻¹
